In patent publication EP1207198A1 one finds increase in the intracellular calcium ion concentration (FLIPR), EC50 data, which are given here for 1 substance.

The test concerns the target human brain-derived G protein-coupled receptor protein ZAQ (human). As to the kind of experiment: cell-based or functional assay.

Take “Human type ZAQ ligand mature peptide (type G, 86 amino acid residues)”: the increase in the intracellular calcium ion concentration (FLIPR), EC50 came out at 0.096 nM.
